Results reported in patent US20240285757A1 (University of Pennsylvania, published 2024).

B1: 806 CAR (EGFR-specific, 4-1BBZ CAR containing an 806 scFv linked via a CD8alpha hinge and CD8a TM to (other)
VH: DVQLQESGPSLVKPSQSLSLTCTVTGYSITSDFAWNWIRQFPGNKLEWMGYISYSGNTRYNPSLKSRISITRDTSKNQFFLQLNSVTIEDTATYYCVTAGRGFPYWGQGTLVTVSA
VL: DILMTQSPSSMSVSLGDTVSITCHSSQDINSNIGWLQQRPGKSFKGLIYHGTNLDDEVPSRFSGSGSGADYSLTISSLESEDFADYYCVQYAQFPWTFGGGTKLEIKR

What was measured:
[1] = biological target: human CD19 on Nalm6 leukemia cells (human) (UniProt P15391); experiment: cell-based or functional assay
Chain of human CD19 on Nalm6 leukemia cells (human) (P15391 20-556): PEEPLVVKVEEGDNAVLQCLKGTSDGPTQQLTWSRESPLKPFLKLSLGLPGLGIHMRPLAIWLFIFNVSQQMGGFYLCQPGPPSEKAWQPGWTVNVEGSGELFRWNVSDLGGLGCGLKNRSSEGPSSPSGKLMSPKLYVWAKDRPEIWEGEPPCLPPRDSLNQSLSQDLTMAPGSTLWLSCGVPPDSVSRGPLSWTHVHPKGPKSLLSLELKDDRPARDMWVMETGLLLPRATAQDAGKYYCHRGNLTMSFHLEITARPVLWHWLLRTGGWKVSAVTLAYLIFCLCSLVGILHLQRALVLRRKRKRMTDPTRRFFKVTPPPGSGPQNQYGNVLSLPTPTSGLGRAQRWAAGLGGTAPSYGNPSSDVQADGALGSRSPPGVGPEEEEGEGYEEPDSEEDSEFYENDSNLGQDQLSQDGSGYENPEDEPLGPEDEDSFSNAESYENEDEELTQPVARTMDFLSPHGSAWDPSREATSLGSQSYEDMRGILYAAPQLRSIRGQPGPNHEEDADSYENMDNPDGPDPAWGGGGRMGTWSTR

[2] = biological target: EGFR on U87 (U87-MG) human glioblastoma cells (human, UniProt P00533 25-1210); experiment: cell-based or functional assay

Row | Molecule | CpNA functional activity in supernatant after 24 h co-culture at 10:1 E:T (cleavage-activated fluorescent NA substrate) [1] [fold] | CpNA functional activity in supernatant after 24 h co-culture with Nalm6 cells at 10:1 E:T [1] [mU/ml] | CpNA levels/activity in supernatant after 24 h co-culture at 10:1 E:T (cleavage-activated fluorescent NA substrate) [2] [fold]
1 | CD19-specific, 4-1BBZ CAR containing the FMC63 scFv | 4.9 | 19.5 | 
2 | B1 |  |  | 2.3
